# pKd: −log10 of the molar value. Where two headings read alike, the source gives them in different places.
# Assays:
# [1] = molecular target: Calmodulin fluorescently labelled with Alexa Fluor 488 (UniProt P0DP23); assay: AUC
# [2] = molecular target: Calmodulin fluorescently labelled with Alexa Fluor 488 (UniProt P0DP23); assay: AUC; remark: listed apart in the source
pKd [1],percent free calmodulin at 1:0.5 CaM:nNOSred [1] [%],percent free calmodulin at 1:0.5 CaM:nNOSred [2] [%],Substance
6.33,64.6,,nNOSred R753A (domain or fragment)
6.78,30.9,40,"nNOSred wt (rat neuronal nitric oxide synthase reductase domain, wild type) (domain or fragment)"
